Literature values, collected in article PMC5536120.

Key:
[1] = molecular target: Fibrin central fragment central region (knobs A) (Homo sapiens) (UniProt P02671)
[2] = molecular target: knob B peptide GHRP (Homo sapiens) (UniProt P02675)
Chain of UniProt P02675 (P02675 whole entry, looked up, tested part not stated): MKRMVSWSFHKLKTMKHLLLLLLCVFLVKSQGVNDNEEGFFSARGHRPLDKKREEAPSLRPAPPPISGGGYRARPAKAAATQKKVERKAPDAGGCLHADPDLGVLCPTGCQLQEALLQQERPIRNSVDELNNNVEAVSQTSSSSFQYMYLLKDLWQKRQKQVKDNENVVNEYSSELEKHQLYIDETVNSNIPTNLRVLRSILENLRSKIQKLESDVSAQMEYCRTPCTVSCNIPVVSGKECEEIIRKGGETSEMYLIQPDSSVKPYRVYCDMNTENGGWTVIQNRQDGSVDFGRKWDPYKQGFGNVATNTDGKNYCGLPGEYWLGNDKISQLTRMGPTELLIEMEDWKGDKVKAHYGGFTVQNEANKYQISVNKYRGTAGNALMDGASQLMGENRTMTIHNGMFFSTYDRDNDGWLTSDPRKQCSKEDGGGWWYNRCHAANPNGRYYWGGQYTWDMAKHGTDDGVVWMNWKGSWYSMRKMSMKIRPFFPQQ

## Fibrinogen (from UniProt P02671)
[1]
  Kd: 5.8 µM
[2]
  Kd: 140 µM
